From the supplement of paper PMC10065799, “High-throughput profiling of sequence recognition by tyrosine kinases and SH2 domains using bacterial peptide display” (eLife, 2023)
One block for each sequence: values may come before it.

Tests used:
Grb2 SH2 = Grb2 SH2 (UniProt P62993); test: SH2 binding enrichment of the phosphorylated peptide, bacterial display (enrichment ratio); higher = better substrate or ligand; peptides without Tyr show the background
c-Src SH2 = test: as above
SHP2-C SH2 = test: as above
Hck = Hck (UniProt P08631); test: phosphorylation enrichment, bacterial display (enrichment ratio); higher = better substrate or ligand; peptides without Tyr show the background
Hck, sequence (P08631 whole entry, looked up): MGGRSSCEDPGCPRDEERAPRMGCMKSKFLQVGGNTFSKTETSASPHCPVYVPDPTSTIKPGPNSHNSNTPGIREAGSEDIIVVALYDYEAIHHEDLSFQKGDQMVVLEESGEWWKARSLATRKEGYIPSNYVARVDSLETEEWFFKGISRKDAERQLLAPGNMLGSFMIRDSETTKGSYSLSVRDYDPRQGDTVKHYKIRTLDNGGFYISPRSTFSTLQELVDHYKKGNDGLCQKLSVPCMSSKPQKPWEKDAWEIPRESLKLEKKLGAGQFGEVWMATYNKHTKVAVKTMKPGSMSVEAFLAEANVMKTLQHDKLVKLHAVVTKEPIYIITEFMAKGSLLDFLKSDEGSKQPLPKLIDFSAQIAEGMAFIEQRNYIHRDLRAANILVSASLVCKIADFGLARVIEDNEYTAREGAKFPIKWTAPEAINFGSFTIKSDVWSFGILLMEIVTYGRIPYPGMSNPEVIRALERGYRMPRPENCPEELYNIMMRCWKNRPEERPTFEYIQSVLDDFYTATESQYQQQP

EPHB1 = EPHB1 (UniProt P54762); test: as above
EPHB1, sequence (P54762 whole entry, looked up): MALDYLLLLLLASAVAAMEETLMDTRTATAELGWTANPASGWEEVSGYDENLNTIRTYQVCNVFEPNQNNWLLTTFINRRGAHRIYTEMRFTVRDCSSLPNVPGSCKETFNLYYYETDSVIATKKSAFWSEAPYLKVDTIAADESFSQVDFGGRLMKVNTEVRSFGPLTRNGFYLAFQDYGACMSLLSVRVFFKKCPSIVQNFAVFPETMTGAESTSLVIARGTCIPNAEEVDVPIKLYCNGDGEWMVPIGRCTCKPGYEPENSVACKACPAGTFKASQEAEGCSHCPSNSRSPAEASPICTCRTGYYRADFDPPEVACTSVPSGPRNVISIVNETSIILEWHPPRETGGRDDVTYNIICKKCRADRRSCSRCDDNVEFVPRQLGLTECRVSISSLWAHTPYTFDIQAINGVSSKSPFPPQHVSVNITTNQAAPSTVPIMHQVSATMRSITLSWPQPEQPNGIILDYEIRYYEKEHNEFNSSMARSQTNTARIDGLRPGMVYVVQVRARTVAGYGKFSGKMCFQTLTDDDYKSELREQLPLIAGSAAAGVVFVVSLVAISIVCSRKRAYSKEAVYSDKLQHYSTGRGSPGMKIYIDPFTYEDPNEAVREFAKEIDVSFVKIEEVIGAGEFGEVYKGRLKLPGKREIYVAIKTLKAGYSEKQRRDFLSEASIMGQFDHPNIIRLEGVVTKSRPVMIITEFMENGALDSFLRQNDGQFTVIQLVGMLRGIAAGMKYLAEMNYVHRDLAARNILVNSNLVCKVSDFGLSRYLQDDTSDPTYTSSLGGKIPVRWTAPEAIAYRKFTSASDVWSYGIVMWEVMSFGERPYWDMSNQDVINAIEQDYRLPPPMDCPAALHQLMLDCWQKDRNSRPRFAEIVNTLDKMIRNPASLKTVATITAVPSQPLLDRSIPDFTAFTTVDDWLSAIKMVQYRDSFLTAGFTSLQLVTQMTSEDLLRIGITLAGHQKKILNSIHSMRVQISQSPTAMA

MERTK = MERTK (UniProt Q12866); test: as above
MERTK, sequence (Q12866 whole entry, looked up): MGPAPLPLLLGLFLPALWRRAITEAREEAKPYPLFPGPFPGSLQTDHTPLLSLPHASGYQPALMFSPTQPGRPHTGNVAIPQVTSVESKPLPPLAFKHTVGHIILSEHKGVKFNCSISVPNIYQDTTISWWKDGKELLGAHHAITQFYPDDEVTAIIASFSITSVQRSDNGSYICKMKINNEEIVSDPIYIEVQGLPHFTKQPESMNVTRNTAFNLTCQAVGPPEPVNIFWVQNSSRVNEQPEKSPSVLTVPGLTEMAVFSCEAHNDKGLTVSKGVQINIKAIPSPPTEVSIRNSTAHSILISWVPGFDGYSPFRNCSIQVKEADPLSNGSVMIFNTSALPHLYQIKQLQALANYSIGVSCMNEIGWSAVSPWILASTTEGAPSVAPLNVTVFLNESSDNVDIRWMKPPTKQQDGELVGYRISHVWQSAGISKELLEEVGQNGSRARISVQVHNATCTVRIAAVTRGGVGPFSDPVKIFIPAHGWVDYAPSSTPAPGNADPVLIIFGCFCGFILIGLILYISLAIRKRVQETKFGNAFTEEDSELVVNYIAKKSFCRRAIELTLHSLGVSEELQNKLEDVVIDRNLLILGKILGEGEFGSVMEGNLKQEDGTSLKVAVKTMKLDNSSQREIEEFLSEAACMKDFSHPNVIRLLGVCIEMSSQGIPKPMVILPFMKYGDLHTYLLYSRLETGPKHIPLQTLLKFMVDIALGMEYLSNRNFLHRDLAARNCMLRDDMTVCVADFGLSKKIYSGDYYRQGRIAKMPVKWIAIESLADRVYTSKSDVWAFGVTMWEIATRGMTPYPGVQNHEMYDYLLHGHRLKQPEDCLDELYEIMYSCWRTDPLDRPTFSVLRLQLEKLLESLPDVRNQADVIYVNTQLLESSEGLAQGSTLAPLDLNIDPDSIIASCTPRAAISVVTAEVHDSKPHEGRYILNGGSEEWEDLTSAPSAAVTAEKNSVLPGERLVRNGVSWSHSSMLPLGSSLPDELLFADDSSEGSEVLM

c-Abl (mouse) = test: as above
EPHB2 = EPHB2 (UniProt P29323); test: as above
EPHB2, sequence (P29323 whole entry, looked up): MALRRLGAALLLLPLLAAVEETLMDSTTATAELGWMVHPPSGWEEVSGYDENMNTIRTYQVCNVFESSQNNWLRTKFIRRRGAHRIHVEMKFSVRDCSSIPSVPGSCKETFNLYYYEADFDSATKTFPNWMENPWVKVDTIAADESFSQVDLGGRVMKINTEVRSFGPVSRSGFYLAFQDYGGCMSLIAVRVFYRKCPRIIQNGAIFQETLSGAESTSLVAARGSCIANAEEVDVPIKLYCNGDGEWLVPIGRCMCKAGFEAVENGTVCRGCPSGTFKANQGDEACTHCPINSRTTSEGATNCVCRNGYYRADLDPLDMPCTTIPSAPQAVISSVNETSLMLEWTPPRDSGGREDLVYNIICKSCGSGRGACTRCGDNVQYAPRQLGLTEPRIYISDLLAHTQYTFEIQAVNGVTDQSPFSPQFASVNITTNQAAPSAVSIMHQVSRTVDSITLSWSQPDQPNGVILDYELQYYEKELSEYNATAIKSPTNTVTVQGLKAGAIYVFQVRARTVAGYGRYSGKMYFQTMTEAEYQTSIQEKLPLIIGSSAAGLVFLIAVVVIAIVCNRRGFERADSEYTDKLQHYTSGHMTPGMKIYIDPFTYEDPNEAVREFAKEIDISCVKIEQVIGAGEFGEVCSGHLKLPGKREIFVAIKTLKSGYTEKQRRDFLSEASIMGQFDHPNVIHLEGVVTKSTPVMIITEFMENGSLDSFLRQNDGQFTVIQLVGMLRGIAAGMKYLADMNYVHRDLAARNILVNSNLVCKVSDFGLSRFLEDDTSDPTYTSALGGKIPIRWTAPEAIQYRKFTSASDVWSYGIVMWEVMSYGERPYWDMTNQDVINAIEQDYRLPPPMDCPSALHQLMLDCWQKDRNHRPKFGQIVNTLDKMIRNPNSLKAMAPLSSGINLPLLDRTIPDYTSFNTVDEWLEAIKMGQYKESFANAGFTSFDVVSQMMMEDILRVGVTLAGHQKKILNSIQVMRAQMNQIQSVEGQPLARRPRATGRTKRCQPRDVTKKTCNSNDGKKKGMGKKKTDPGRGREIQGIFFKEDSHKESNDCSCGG

Fer (mouse) = test: as above
FGFR1 = FGFR1 (UniProt P11362); test: as above
Fes = Fes (UniProt P07332); test: as above
Fes, sequence (P07332 whole entry, looked up): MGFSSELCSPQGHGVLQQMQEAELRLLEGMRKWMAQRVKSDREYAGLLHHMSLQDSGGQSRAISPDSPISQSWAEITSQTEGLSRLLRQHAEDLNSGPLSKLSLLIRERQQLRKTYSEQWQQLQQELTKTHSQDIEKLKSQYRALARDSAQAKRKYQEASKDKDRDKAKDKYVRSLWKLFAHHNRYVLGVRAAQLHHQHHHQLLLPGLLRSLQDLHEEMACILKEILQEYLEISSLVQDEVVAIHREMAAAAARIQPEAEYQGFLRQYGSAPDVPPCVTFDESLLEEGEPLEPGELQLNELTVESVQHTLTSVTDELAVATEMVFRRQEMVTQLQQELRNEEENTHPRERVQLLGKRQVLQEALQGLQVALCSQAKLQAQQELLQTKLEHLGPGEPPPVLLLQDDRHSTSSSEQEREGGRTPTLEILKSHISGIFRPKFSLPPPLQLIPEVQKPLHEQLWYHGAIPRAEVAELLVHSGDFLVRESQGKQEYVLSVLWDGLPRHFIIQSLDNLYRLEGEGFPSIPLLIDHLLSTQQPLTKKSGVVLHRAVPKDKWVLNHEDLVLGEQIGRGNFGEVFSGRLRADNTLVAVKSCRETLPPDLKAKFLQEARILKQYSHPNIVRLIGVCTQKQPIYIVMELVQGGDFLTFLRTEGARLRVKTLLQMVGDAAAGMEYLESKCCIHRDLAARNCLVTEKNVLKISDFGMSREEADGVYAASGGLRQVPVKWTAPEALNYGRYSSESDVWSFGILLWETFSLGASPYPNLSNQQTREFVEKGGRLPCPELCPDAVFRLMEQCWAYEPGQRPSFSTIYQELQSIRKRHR

Jak2 = Jak2 (UniProt O60674); test: as above
c-Src = test: as above
Fyn = Fyn (UniProt P06241); test: as above
Fyn, sequence (P06241 whole entry, looked up): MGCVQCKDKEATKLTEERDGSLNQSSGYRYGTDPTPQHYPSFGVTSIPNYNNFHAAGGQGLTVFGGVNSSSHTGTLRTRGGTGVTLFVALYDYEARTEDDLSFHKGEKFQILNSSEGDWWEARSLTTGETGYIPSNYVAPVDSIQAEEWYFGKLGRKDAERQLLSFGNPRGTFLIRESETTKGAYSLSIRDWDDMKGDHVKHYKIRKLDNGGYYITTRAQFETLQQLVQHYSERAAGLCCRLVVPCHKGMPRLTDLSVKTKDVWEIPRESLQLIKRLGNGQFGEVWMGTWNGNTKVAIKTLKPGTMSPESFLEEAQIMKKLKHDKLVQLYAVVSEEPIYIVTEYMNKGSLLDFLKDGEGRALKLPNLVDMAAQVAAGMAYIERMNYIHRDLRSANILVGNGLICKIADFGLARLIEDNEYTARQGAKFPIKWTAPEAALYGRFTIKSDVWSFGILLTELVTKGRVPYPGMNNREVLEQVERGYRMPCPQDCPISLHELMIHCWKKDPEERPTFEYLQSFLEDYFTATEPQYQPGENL

FGFR3 = FGFR3 (UniProt P22607); test: as above
AncSZ = test: as above
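For SH2 binding enrichment of the phosphorylated peptide, bacterial display in this document: peptide library displayed on the E. coli surface as eCPX fusions, selected cells deep-sequenced, score is each peptide's frequency after selection divided by its frequency in the input.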
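For phosphorylation enrichment, bacterial display in this document: 11-residue human phosphosite peptides and single-mutation variants displayed on the E. coli surface, counted by deep sequencing, each peptide's frequency after selection divided by its frequency in the unselected input library; frequency after pTyr selection over input frequency; kinase dosed for 20-30% of maximal phosphorylation in three min.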

SH2 binding enrichment (Grb2 SH2): 0.646
SH2 binding enrichment (c-Src SH2): 0.427
SH2 binding enrichment (SHP2-C SH2): 0.478
Sequence: LRAGVYREKDQ [DNM2_Y626_P627R]
phosphorylation enrichment (Hck): 0.449
phosphorylation enrichment (EPHB1): 0.392
phosphorylation enrichment (MERTK): 0.398
phosphorylation enrichment (c-Abl (mouse)): 0.514
phosphorylation enrichment (EPHB2): 0.295
phosphorylation enrichment (Fer (mouse)): 0.349
phosphorylation enrichment (FGFR1): 0.335
phosphorylation enrichment (Fes): 0.636
phosphorylation enrichment (Jak2): 0.38
phosphorylation enrichment (c-Src): 0.448
phosphorylation enrichment (Fyn): 0.35
phosphorylation enrichment (FGFR3): 0.524
phosphorylation enrichment (AncSZ): 0.882

SH2 binding enrichment (Grb2 SH2): 1.8
SH2 binding enrichment (c-Src SH2): 1.84
SH2 binding enrichment (SHP2-C SH2): 1.93
Sequence: CTTIHYNFMCN [TP53_Y234_Y236F]
phosphorylation enrichment (Hck): 0.456
phosphorylation enrichment (EPHB1): 0.428
phosphorylation enrichment (MERTK): 0.405
phosphorylation enrichment (c-Abl (mouse)): 0.661
phosphorylation enrichment (EPHB2): 0.485
phosphorylation enrichment (Fer (mouse)): 0.516
phosphorylation enrichment (FGFR1): 0.509
phosphorylation enrichment (Fes): 0.923
phosphorylation enrichment (Jak2): 0.824
phosphorylation enrichment (c-Src): 0.487
phosphorylation enrichment (Fyn): 0.436
phosphorylation enrichment (FGFR3): 0.645
phosphorylation enrichment (AncSZ): 0.861

SH2 binding enrichment (Grb2 SH2): 1.01
SH2 binding enrichment (c-Src SH2): 0.465
SH2 binding enrichment (SHP2-C SH2): 0.571
Sequence: ATGMEYLASQK [FGFR2_Y616_R612T]
phosphorylation enrichment (Hck): 0.474
phosphorylation enrichment (EPHB1): 0.479
phosphorylation enrichment (MERTK): 0.423
phosphorylation enrichment (c-Abl (mouse)): 0.58
phosphorylation enrichment (EPHB2): 0.495
phosphorylation enrichment (Fer (mouse)): 0.426
phosphorylation enrichment (FGFR1): 0.464
phosphorylation enrichment (Fes): 0.794
phosphorylation enrichment (Jak2): 0.68
phosphorylation enrichment (c-Src): 0.44
phosphorylation enrichment (Fyn): 0.559
phosphorylation enrichment (FGFR3): 0.833
phosphorylation enrichment (AncSZ): 0.736

SH2 binding enrichment (Grb2 SH2): 0.713
SH2 binding enrichment (c-Src SH2): 0.547
SH2 binding enrichment (SHP2-C SH2): 0.842
Sequence: LVRPPYSFLAL [FOXI1_Y126_S129L_YF]
phosphorylation enrichment (Hck): 0.727
phosphorylation enrichment (EPHB1): 0.584
phosphorylation enrichment (MERTK): 1.05
phosphorylation enrichment (c-Abl (mouse)): 0.526
phosphorylation enrichment (EPHB2): 0.523
phosphorylation enrichment (Fer (mouse)): 1.22
phosphorylation enrichment (FGFR1): 1.07
phosphorylation enrichment (Fes): 0.787
phosphorylation enrichment (Jak2): 0.71
phosphorylation enrichment (c-Src): 0.525
phosphorylation enrichment (Fyn): 0.525
phosphorylation enrichment (FGFR3): 0.866
phosphorylation enrichment (AncSZ): 0.683

SH2 binding enrichment (Grb2 SH2): 0.934
SH2 binding enrichment (c-Src SH2): 3.49
SH2 binding enrichment (SHP2-C SH2): 0.686
Sequence: VERIGYDFIPT [CBS_Y308_G305R]
phosphorylation enrichment (Hck): 0.571
phosphorylation enrichment (EPHB1): 0.544
phosphorylation enrichment (MERTK): 0.521
phosphorylation enrichment (c-Abl (mouse)): 0.593
phosphorylation enrichment (EPHB2): 0.461
phosphorylation enrichment (Fer (mouse)): 0.417
phosphorylation enrichment (FGFR1): 0.56
phosphorylation enrichment (Fes): 0.801
phosphorylation enrichment (Jak2): 0.611
phosphorylation enrichment (c-Src): 0.434
phosphorylation enrichment (Fyn): 0.529
phosphorylation enrichment (FGFR3): 0.605
phosphorylation enrichment (AncSZ): 0.759

SH2 binding enrichment (Grb2 SH2): 0.829
SH2 binding enrichment (c-Src SH2): 0.635
SH2 binding enrichment (SHP2-C SH2): 0.769
Sequence: NLRQQYNSPQE [UMPS_Y432_G429R]
phosphorylation enrichment (Hck): 0.451
phosphorylation enrichment (EPHB1): 0.382
phosphorylation enrichment (MERTK): 0.293
phosphorylation enrichment (c-Abl (mouse)): 0.354
phosphorylation enrichment (EPHB2): 0.439
phosphorylation enrichment (Fer (mouse)): 0.345
phosphorylation enrichment (FGFR1): 0.464
phosphorylation enrichment (Fes): 0.587
phosphorylation enrichment (Jak2): 0.592
phosphorylation enrichment (c-Src): 0.316
phosphorylation enrichment (Fyn): 0.437
phosphorylation enrichment (FGFR3): 0.43
phosphorylation enrichment (AncSZ): 0.634

SH2 binding enrichment (Grb2 SH2): 0.936
SH2 binding enrichment (c-Src SH2): 0.553
SH2 binding enrichment (SHP2-C SH2): 0.622
Sequence: WNDLDYMDSRR [GAA_Y407]
phosphorylation enrichment (Hck): 0.471
phosphorylation enrichment (EPHB1): 0.698
phosphorylation enrichment (MERTK): 0.371
phosphorylation enrichment (c-Abl (mouse)): 0.864
phosphorylation enrichment (EPHB2): 0.532
phosphorylation enrichment (Fer (mouse)): 0.427
phosphorylation enrichment (FGFR1): 0.59
phosphorylation enrichment (Fes): 1.26
phosphorylation enrichment (Jak2): 1.4
phosphorylation enrichment (c-Src): 0.646
phosphorylation enrichment (Fyn): 0.451
phosphorylation enrichment (FGFR3): 0.674
phosphorylation enrichment (AncSZ): 1.34

SH2 binding enrichment (Grb2 SH2): 0.893
SH2 binding enrichment (c-Src SH2): 0.479
SH2 binding enrichment (SHP2-C SH2): 0.853
Sequence: FTGNTYRVGDT [FN1_Y106_YF]
phosphorylation enrichment (Hck): 0.293
phosphorylation enrichment (EPHB1): 0.382
phosphorylation enrichment (MERTK): 0.394
phosphorylation enrichment (c-Abl (mouse)): 0.479
phosphorylation enrichment (EPHB2): 0.464
phosphorylation enrichment (Fer (mouse)): 0.396
phosphorylation enrichment (FGFR1): 0.372
phosphorylation enrichment (Fes): 0.667
phosphorylation enrichment (Jak2): 0.499
phosphorylation enrichment (c-Src): 0.476
phosphorylation enrichment (Fyn): 0.424
phosphorylation enrichment (FGFR3): 0.472
phosphorylation enrichment (AncSZ): 0.634

SH2 binding enrichment (Grb2 SH2): 0.673
SH2 binding enrichment (c-Src SH2): 0.441
SH2 binding enrichment (SHP2-C SH2): 1.03
Sequence: KSIEEYLKLVG [RASAL2_Y381]
phosphorylation enrichment (Hck): 0.51
phosphorylation enrichment (EPHB1): 0.468
phosphorylation enrichment (MERTK): 0.372
phosphorylation enrichment (c-Abl (mouse)): 0.521
phosphorylation enrichment (EPHB2): 0.581
phosphorylation enrichment (Fer (mouse)): 0.409
phosphorylation enrichment (FGFR1): 0.528
phosphorylation enrichment (Fes): 0.962
phosphorylation enrichment (Jak2): 0.775
phosphorylation enrichment (c-Src): 0.438
phosphorylation enrichment (Fyn): 0.404
phosphorylation enrichment (FGFR3): 0.48
phosphorylation enrichment (AncSZ): 0.772

SH2 binding enrichment (Grb2 SH2): 0.804
SH2 binding enrichment (c-Src SH2): 0.55
SH2 binding enrichment (SHP2-C SH2): 3.31
Sequence: IHETTYKSIMK [ACTA1_Y281_N282K]
phosphorylation enrichment (Hck): 0.359
phosphorylation enrichment (EPHB1): 0.324
phosphorylation enrichment (MERTK): 0.331
phosphorylation enrichment (c-Abl (mouse)): 0.458
phosphorylation enrichment (EPHB2): 0.33
phosphorylation enrichment (Fer (mouse)): 0.372
phosphorylation enrichment (FGFR1): 0.373
phosphorylation enrichment (Fes): 0.583
phosphorylation enrichment (Jak2): 0.692
phosphorylation enrichment (c-Src): 0.384
phosphorylation enrichment (Fyn): 0.309
phosphorylation enrichment (FGFR3): 0.472
phosphorylation enrichment (AncSZ): 0.364

SH2 binding enrichment (Grb2 SH2): 0.668
SH2 binding enrichment (c-Src SH2): 0.333
SH2 binding enrichment (SHP2-C SH2): 0.854
Sequence: DFDNLYFWDQD [ERBB2_Y1221_A1216D_YF]
phosphorylation enrichment (Hck): 5.15
phosphorylation enrichment (EPHB1): 1.57
phosphorylation enrichment (MERTK): 4.6
phosphorylation enrichment (c-Abl (mouse)): 0.801
phosphorylation enrichment (EPHB2): 1.07
phosphorylation enrichment (Fer (mouse)): 2.2
phosphorylation enrichment (FGFR1): 7.58
phosphorylation enrichment (Fes): 1.71
phosphorylation enrichment (Jak2): 1.25
phosphorylation enrichment (c-Src): 5.27
phosphorylation enrichment (Fyn): 6.47
phosphorylation enrichment (FGFR3): 7.69
phosphorylation enrichment (AncSZ): 2.2

SH2 binding enrichment (Grb2 SH2): 0.677
SH2 binding enrichment (c-Src SH2): 0.56
SH2 binding enrichment (SHP2-C SH2): 0.82
Sequence: TGFRPYVCPFD [YY1_Y383_D380Y_YF]
phosphorylation enrichment (Hck): 0.691
phosphorylation enrichment (EPHB1): 2.1
phosphorylation enrichment (MERTK): 0.849
phosphorylation enrichment (c-Abl (mouse)): 1.29
phosphorylation enrichment (EPHB2): 0.978
phosphorylation enrichment (Fer (mouse)): 0.892
phosphorylation enrichment (FGFR1): 1.1
phosphorylation enrichment (Fes): 0.975
phosphorylation enrichment (Jak2): 1.12
phosphorylation enrichment (c-Src): 0.458
phosphorylation enrichment (Fyn): 0.4
phosphorylation enrichment (FGFR3): 1.66
phosphorylation enrichment (AncSZ): 1.54

SH2 binding enrichment (Grb2 SH2): 0.883
SH2 binding enrichment (c-Src SH2): 0.588
SH2 binding enrichment (SHP2-C SH2): 0.774
Sequence: SETSRYLSELF [KCNJ3_Y67_D70E]
phosphorylation enrichment (Hck): 0.464
phosphorylation enrichment (EPHB1): 0.467
phosphorylation enrichment (MERTK): 0.382
phosphorylation enrichment (c-Abl (mouse)): 0.535
phosphorylation enrichment (EPHB2): 0.498
phosphorylation enrichment (Fer (mouse)): 0.376
phosphorylation enrichment (FGFR1): 0.509
phosphorylation enrichment (Fes): 0.882
phosphorylation enrichment (Jak2): 0.783
phosphorylation enrichment (c-Src): 0.346
phosphorylation enrichment (Fyn): 0.397
phosphorylation enrichment (FGFR3): 0.537
phosphorylation enrichment (AncSZ): 1.07

SH2 binding enrichment (Grb2 SH2): 0.861
SH2 binding enrichment (c-Src SH2): 0.324
SH2 binding enrichment (SHP2-C SH2): 0.504
Sequence: WASQRYGRELR [BAD_Y110_A107S]
phosphorylation enrichment (Hck): 0.4
phosphorylation enrichment (EPHB1): 0.484
phosphorylation enrichment (MERTK): 0.516
phosphorylation enrichment (c-Abl (mouse)): 0.728
phosphorylation enrichment (EPHB2): 0.538
phosphorylation enrichment (Fer (mouse)): 0.332
phosphorylation enrichment (FGFR1): 0.39
phosphorylation enrichment (Fes): 0.84
phosphorylation enrichment (Jak2): 0.644
phosphorylation enrichment (c-Src): 0.501
phosphorylation enrichment (Fyn): 0.624
phosphorylation enrichment (FGFR3): 0.414
phosphorylation enrichment (AncSZ): 0.621
